Molecular target: the molecule itself
Experiment: SAXS; nucleotide-free KaiC monomer (1.69 mg/ml) mixed with P-buffer containing ATP to 1 mM final; curve taken at 30°C 6 min after addition of ATP; monomer to hexamer

B1: KaiC (natural protein, UniProt Q79PF4 1-519, looked up)
chain: MTSAEMTSPNNNSEHQAIAKMRTMIEGFDDISHGGLPIGRSTLVSGTSGTGKTLFSIQFLYNGIIEFDEPGVFVTFEETPQDIIKNARSFGWDLAKLVDEGKLFILDASPDPEGQEVVGGFDLSALIERINYAIQKYRARRVSIDSVTSVFQQYDASSVVRRELFRLVARLKQIGATTVMTTERIEEYGPIARYGVEEFVSDNVVILRNVLEGERRRRTLEILKLRGTSHMKGEYPFTITDHGINIFPLGAMRLTQRSSNVRVSSGVVRLDEMCGGGFFKDSIILATGATGTGKTLLVSRFVENACANKERAILFAYEESRAQLLRNAYSWGMDFEEMERQNLLKIVCAYPESAGLEDHLQIIKSEINDFKPARIAIDSLSALARGVSNNAFRQFVIGVTGYAKQEEITGLFTNTSDQFMGAHSITDSHISTITDTIILLQYVEIRGEMSRAINVFKMRGSWHDKAIREFMISDKGPDIKDSFRNFERIISGSPTRITVDEKSELSRIVRGVQEKGPES
In the case of B1, the “stoichiometry N” value is reported as 6.05 ± 0.08 fold.

— paper PMC4736791 (Biophysics, 2015)
